Assay results: patent US20220402981A1

Tests used:
[1] = target: DDB1ΔB-DCAF15biotin (human) (UniProt Q16531); test: TR-FRET dimerization assay; the compound indisulam is titrated (EC50 is of the compound), both proteins at 200 nM, FIG. 7F
[2] = target: DDB1ΔB-DCAF15biotin (human) (UniProt Q16531); test: TR-FRET dimerization assay; the compound tasisulam is titrated (EC50 is of the compound), both proteins at 200 nM, FIG. 7F
[3] = target: DDB1ΔB-DCAF15biotin-DDA1 (human) (UniProt Q16531); test: TR-FRET, BodipyFL-RBM39RRM2 titrated to DDB1ΔB-DCAF15biotin-DDA1 in the presence of E7820 (50 µM), FIG. 3C; apparent KD
[4] = target: DDB1ΔB-DCAF15biotin-DDA1 (human) (UniProt Q16531); test: TR-FRET with E7820; DDB1-DCAF15-DDA1 against DDB1-DCAF15
[5] = target: DDB1ΔB-DCAF15biotin (human) (UniProt Q16531); test: TR-FRET, BodipyFL-RBM39RRM2 titrated to DDB1ΔB-DCAF15biotin in the presence of indisulam at 50 µM; apparent KD
[6] = target: DDB1ΔB-DCAF15biotin-DDA1 (human) (UniProt Q16531); test: TR-FRET dimerization assay; the compound E7820 is titrated (EC50 is of the compound) to DDB1ΔB-DCAF15biotin-DDA1 and BodipyFL-RBM39RRM2, FIG. 3D
[7] = target: DDB1ΔB-DCAF15biotin (human) (UniProt Q16531); test: TR-FRET, BodipyFL-RBM39RRM2 titrated to DDB1ΔB-DCAF15biotin in the presence of E7820 (50 µM), FIG. 3C; apparent KD
[8] = target: DDB1ΔB-DCAF15biotin (human) (UniProt Q16531); test: TR-FRET dimerization assay; the compound E7820 is titrated (EC50 is of the compound), both proteins at 200 nM, FIG. 7F
[9] = target: DDB1ΔB-DCAF15biotin (human) (UniProt Q16531); test: TR-FRET, BodipyFL-RBM39RRM2 titrated to DDB1ΔB-DCAF15biotin in the presence of E7820 at 50 µM; apparent KD
[10] = target: DDB1ΔB-DCAF15biotin (human) (UniProt Q16531); test: TR-FRET, BodipyFL-RBM39RRM2 titrated to DDB1ΔB-DCAF15biotin in the presence of tasisulam at 50 µM; apparent KD
[11] = target: DDB1ΔB-DCAF15biotin (human) (UniProt Q16531); test: TR-FRET dimerization assay; the compound E7820 is titrated (EC50 is of the compound) to DDB1ΔB-DCAF15 in the presence of BodipyFL-RBM23RRM2-WT, FIG. 5E

Chain of BodipyFL-RBM39RRM2 (Q14498 245-332): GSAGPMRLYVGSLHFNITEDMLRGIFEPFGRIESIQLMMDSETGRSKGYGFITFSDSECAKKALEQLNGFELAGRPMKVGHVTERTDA

Substance | EC50 [1] [nM] | EC50 [2] [nM] | Kd [3] [nM] | fold strengthening of apparent affinity against the complex without DDA1 [4] [fold] | Kd [5] [nM] | EC50 [6] [nM] | Kd [7] [nM] | EC50 [8] [nM] | Kd [9] [nM] | Kd [10] [nM] | EC50 [11] [nM]
BodipyFL-RBM39RRM2 (from UniProt Q14498 245-332) | 3200 | > 10000 | 620 | 3 | 2100 | 330 | 1900 | 740 | 2000 | 3500 | 
BodipyFL-RBM23RRM2-WT (from UniProt Q86U06 263-341) |  |  |  |  |  |  |  |  |  |  | 1000
